Measured values reported in patent US20260234220A1 (OSPEDALE SAN RAFFAELE S R L, published 2026).

What was measured:
Test in all cases: immunofluorescence on infected Vero E6 cells
[1] = molecular target: T1, spike protein of SARS-CoV-2 B.1.1.7 (Alpha) clinical isolate (19/Italy/LOM-UniSR7/2021); GISAID … (SARS-CoV-2, UniProt P0DTC2 14-1273)
T1 construct: whole, on cells

[2] = molecular target: T2, spike protein of SARS-CoV-2 P.1 (Gamma) clinical isolate (hCoV-19/Italy/LOM-UniSR8/2021); GISAID … (SARS-CoV-2, UniProt P0DTC2 14-1273)
T2 construct: whole, on cells

[3] = molecular target: T3, spike protein of SARS-CoV-2 Delta clinical isolate (hCoV-19/Italy/LOM-UniSR12/2021; GISAID EPI_ISL_4198505) (SARS-CoV-2, UniProt P0DTC2 14-1273)
T3 construct: whole, on cells

Measured: binding result

B1: Fab BS.70 (Fab, V domains shown)
VH: LESGGGVVQPGTSLRLSCAASGFTFNNFGMHWVRQAPGKGLEWVAMISYEGSKDFYADSVKGRFTISKDHARNTVYLQMNSLRAEDTAEYYCAKDKAIFMISAGRTLDFWGQGTLVTVSS
VL: ELVMTQSPSSLSASVGDRVTITCRASQNIGIYLNWYQQKPGKAPKLLIYAASSLQNGVPSRFSGSGSGTDFTLTISTLQPEDFATYWCQQGYSTPLTFGGGTKVEIR
binds: all assays above
